# US20160279247A1, “CYCLIC PEPTIDE” (THE SECRETARY OF STATE FOR BUSINESS, INNOVATION & SKILLS OF …, published 2016)
# Where no end group is shown, it is not given here.
# Target: T1, D2 peptide (C-terminal amide ('am'))
# T1 peptide: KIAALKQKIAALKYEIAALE
# Experiment: CD spectroscopy, thermal denaturation of the equimolar mixture (100 uM in each peptide)
# Protocol: CD spectra were recorded on an Applied Photosystem Chirascan spectropolarimetre fitted with a Peltier temperature controller. All measurements were taken in ellipticities in mdeg and after baseline correction were converted to mean residue ellipticity (MRE; deg cm² dmol res⁻¹) by normalising for the concentration of peptide bonds and cuvette pathlength. Aqueous peptide solutions (300 μL, 100 μM in each peptide unless stated otherwise) were prepared in filtered (0.22 μm) 10 mM MOPS or phosphate buffer, pH 7.4. To calculate the percent α-helix, the equation, −100([q]₂₂₂+3000)/33 000), was used.
# Thermal denaturation curves (solid lines) and their first derivatives (dashed lines) for SaNet (FIG. 8a), D1-D2 (FIGS. 8b) and D1 (FIG. 8c); and CD spectra following the thermal unfolding of D1-D2 (FIGS. 8d) and D1 (FIG. 8e); 10° C. (dotted line) and 90° C. (dashed line) with intervening spectra recorded every 10° C. (solid lines).
binder,measurement,value
EIAALEQEIAALEYKIAALK-NH2 [D1 peptide],transition midpoint of thermal unfolding of the D1+D2 mixture,~55 ° C.
